According to the supplement of paper PMC9732359:
± gives the uncertainty stated by the source.

Experiment: protein stability index of a GFP-peptide fusion (yeast GPS) (PSI 1-4); higher = more stable; sorted into four equal gates, so the index is relative within each strain
In short: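 Yeast carrying a pooled library were grown to mid-log phase in leucine-free medium. Each library plasmid expresses Cherry and has a tiled 17-residue yeast protein peptide fused downstream of GFP. Cells were sorted into four equal gates by GFP/Cherry ratio, and plasmids from each gate were PCR-amplified, Illumina-sequenced and assigned to strains by barcode. Summing, across gates, the read frequency times the gate number gave each peptide's protein stability index.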

Sequence	protein stability index (doa10∆)	protein stability index (pdr5∆)	protein stability index (san1∆)	protein stability index (ubr1∆)
KLSQMILDKIFYGVLDQ [RPN6]	2.83 ± 0.13	2.99 ± 0.12	2.92 ± 0.062	2.86 ± 0.11
PKVSAGDSGISPEESKA [SIR4]	3.44 ± 0.1	3.46 ± 0.13	2.98 ± 0.098	3.17 ± 0.059
VSNENKKNIDYQNRSTR [RRI1]	3.13 ± 0.065	3.04 ± 0.067	3.2 ± 0.062	3.25 ± 0.055
YQNQFVEFCRNINSTDK [YML103C/NUP188]	3.04 ± 0.11	2.76 ± 0.088	2.6 ± 0.12	2.92 ± 0.049
DSAAIIAATGLNQINGL [GRR1]	2.85 ± 0.096	2.83 ± 0.089	2.79 ± 0.083	2.96 ± 0.073
ILVLALEDLKDVYASKV [PRP8]	2.29 ± 0.064	1.8 ± 0.057	2.85 ± 0.081	2.21 ± 0.066
EIGILDHVDGSSEFVSQ [RRP46]	1.69 ± 0.067	2.01 ± 0.059	2.24 ± 0.065	2.5 ± 0.064
QFTRFFLLVPSKQVQVS [ECM29]	1.27 ± 0.075	1.18 ± 0.061	1.19 ± 0.11	1.21 ± 0.072
YMKFSNKYLELCKLASN [RRI2]	1.64 ± 0.05	1.87 ± 0.039	1.57 ± 0.092	1.76 ± 0.037
FIDSICKLFDKISFNLR [SRB8]	2.23 ± 0.054	2.23 ± 0.046	1.96 ± 0.063	1.98 ± 0.053
ILTIIEEYKKSLYAYCH [GRR1]	2.38 ± 0.28	1.33 ± 0.21	2.27 ± 0.26	3.38 ± 0.24
MVDESDKKQQTIDEQSQ [RPN1]	3.17 ± 0.16	3.25 ± 0.16	3.38 ± 0.11	3.43 ± 0.12
PNISHSNIDYQTLLANS [SNF2]	3.33 ± 0.17	2.7 ± 0.18	2.58 ± 0.22	2.82 ± 0.11
TDLMSIVQELLDKNLIK [RPC34]	3.39 ± 0.21	2.74 ± 0.17		3.15 ± 0.14
DELILEAKERYTDRDQD [NNF1]		3.68 ± 0.27	3.58 ± 0.1	3.52 ± 0.2
MPQSGTGVSVEAVDDVF [RPN11]	3.35 ± 0.11	3.12 ± 0.11	3 ± 0.092	3.19 ± 0.051
YGKLRNGMFCQVPSSLI [RRP4]	2.22 ± 0.066	2 ± 0.1	2.4 ± 0.09	2 ± 0.072
TKLYFDVNEKIRFRIER [RPC25]	2.97 ± 0.11	2.92 ± 0.097	2.81 ± 0.084	2.92 ± 0.17
ALSIADDASSAELLGRV [RPC53]	3.02 ± 0.16	2.92 ± 0.26	3.21 ± 0.18	3.12 ± 0.085
AQWERSKLSQEFLYPHL [SNF12]	3.1 ± 0.088	3 ± 0.084	2.83 ± 0.071	3.08 ± 0.062
KFILQILQILNLMILNT [YML103C/NUP188]	1.3 ± 0.081	1.29 ± 0.064	1.42 ± 0.21	2.09 ± 0.03
SIDFRTYRCSIKNLPAD [SRB2]	2.32 ± 0.074	2.56 ± 0.079	2.19 ± 0.07	2.27 ± 0.067
NIKTIAETLAEELINAA [RPS5]	2.29 ± 0.067	2.87 ± 0.073	2.85 ± 0.057	2.46 ± 0.048
GLGMISASHILIPASDL [PRP8]	2.06 ± 0.05	2.41 ± 0.043	1.75 ± 0.06	2.19 ± 0.036
VQGSTLAQLTSKLIPEV [RPS1A]	2.79 ± 0.061	2.96 ± 0.063	3.01 ± 0.051	2.76 ± 0.045
NKDMIKNLVKVLESRVN [CSN12]	2.32 ± 0.23	2.63 ± 0.15	1.58 ± 0.18	1.75 ± 0.15
GHSLGEYAALASLADVM [FAS1]	2.27 ± 0.061	2.29 ± 0.057	1.92 ± 0.078	2.6 ± 0.059

Sequence	protein stability index (doa10∆)	protein stability index (pdr5∆)	protein stability index (san1∆)	protein stability index (ubr1∆)
MVKNVKPSSPPDVKSLV [SIR4]	3.23 ± 0.11	3.12 ± 0.063	2.97 ± 0.085	3.13 ± 0.068
MLASQANGGSTIISPHK [DSN1]	3.42 ± 0.17	3.43 ± 0.14	3.45 ± 0.073	3.28 ± 0.15
EYKTSSDSLGPDTSNEI [SRB2]	2.67 ± 0.23	2.47 ± 0.089	2.96 ± 0.2	2.55 ± 0.1
SLVALGIDPQDLKKLNL [CDC53]	2.84 ± 0.068	2.72 ± 0.066	2.79 ± 0.049	2.25 ± 0.04
NRMQISPDQMRNLQMGL [GRR1]		3.18 ± 0.12	3.27 ± 0.11	2.83 ± 0.12
KLLATSTKIIMLLLNDS [SRB8]	1.57 ± 0.065	1.46 ± 0.059	1.48 ± 0.16	1.23 ± 0.071
LYGLNLTLRKAKAPSGL [FAS1]	2.92 ± 0.089	2.17 ± 0.12	3.53 ± 0.068	2.42 ± 0.15
NLKGRPYTGWVDSKTKE [FAS2]	3.03 ± 0.062	2.95 ± 0.047	3.11 ± 0.048	3.04 ± 0.045
EYKSLFVVGVDNVSSQQ [RPP0]	3.22 ± 0.055	2.79 ± 0.067	3.29 ± 0.091	3.24 ± 0.053
ILQIREEIPSKSWDDSV [RRP6]	2.27 ± 0.078	2.76 ± 0.092	2.32 ± 0.084	2.7 ± 0.055
LVVRFTNKDIICQIISS [RPL5]	1.62 ± 0.055	1.79 ± 0.062	1.25 ± 0.18	1.67 ± 0.051
DPNNPVDFDGLDIKRVG [SNF12]	3.5 ± 0.087	3.32 ± 0.086	3.32 ± 0.097	3.25 ± 0.063
RQFVSNVRSVIRSSRSR [RPP1]	3.08 ± 0.063	3.08 ± 0.071	2.91 ± 0.064	3.09 ± 0.06
SYVETLDSMIELFKDYK [MED1]	3.24 ± 0.085	3.22 ± 0.1	3.34 ± 0.052	3.19 ± 0.054
NNHNMRNNSNNKTSNNN [SWI1]	2.56 ± 0.088	2.55 ± 0.068	1.85 ± 0.093	2.6 ± 0.049
DTQFTKLLDDNPTEFDW [SRB8]	2.99 ± 0.089	3.04 ± 0.071	2.91 ± 0.058	2.91 ± 0.043
NIRGNTIRQIILPDSLN [SMD1]	2.87 ± 0.15	2.94 ± 0.12	2.76 ± 0.16	3.27 ± 0.099
IIDRGRNVLSASLDGTI [RPN14]	3.1 ± 0.093	2.52 ± 0.065	2.97 ± 0.055	2.77 ± 0.044
VEQTAEVTIEDALKVVL [RPS12]	3.34 ± 0.079	3.36 ± 0.078	3.19 ± 0.049	3.21 ± 0.045
EENSQGNILDFNLNLPP [REC8]	3.06 ± 0.11	3.5 ± 0.14	3.18 ± 0.051	3.01 ± 0.079
LGNVDAFQLADGIHYIL [PRP8]	2.74 ± 0.15	2.65 ± 0.083	2.42 ± 0.1	1.91 ± 0.042
DPSRELNVIIDQLAVSP [YCS4]	2.79 ± 0.055	3.04 ± 0.062	2.72 ± 0.053	2.67 ± 0.05
PKSASNTSSKRQKKKPT [IRR1]	2.78 ± 0.069	2.61 ± 0.072	2.65 ± 0.049	2.96 ± 0.072
VEVDITLSPNVTDSSLL [GRR1]	2.83 ± 0.074	2.43 ± 0.068	2.99 ± 0.053	2.82 ± 0.046
KVFSLDPQYLVDDLRPE [ASC1]	2.94 ± 0.16	2.84 ± 0.1	3.04 ± 0.09	3.15 ± 0.078
DSTVNKSITLKGRNNES [YDL088C/ASM4]	3.28 ± 0.09	3.38 ± 0.084	3.23 ± 0.058	3.21 ± 0.079
QVLKCKESWDPNTTKTK [YGR119C/NUP57]	3.52 ± 0.21	3.41 ± 0.076	3.63 ± 0.089	3.55 ± 0.15

Sequence	protein stability index (doa10∆)	protein stability index (pdr5∆)	protein stability index (san1∆)	protein stability index (ubr1∆)
DLLRSQLTSLEKDCSLR [YIL149C/MLP2]	2.94 ± 0.061	3.05 ± 0.063	2.33 ± 0.077	3.03 ± 0.042
FTKNEEKLLKELENNEF [ITC1]	2.26 ± 0.083	2.28 ± 0.074	2.27 ± 0.083	2.24 ± 0.27
LRASFNKLSSILQNEHD [SRB4]	2.1 ± 0.1	2.22 ± 0.069	1.52 ± 0.14	2.49 ± 0.053
DEGHVLKLENLHVVSKS [SIN4]	3.14 ± 0.11	2.65 ± 0.16	2.73 ± 0.19	3.02 ± 0.13
ANNNMNDELVELLANKC [GRR1]	2.79 ± 0.061	2.92 ± 0.044	2.78 ± 0.059	2.99 ± 0.046
VDFEKFETFLVDVNNKF [SIN4]	3.23 ± 0.07	3.34 ± 0.059	3.51 ± 0.037	3.31 ± 0.052
SQSLTSILVIVQKILPL [SWI1]	1.38 ± 0.041	1.39 ± 0.035	1.48 ± 0.066	1.61 ± 0.033
LLLTIQLLIIEKEWENA [SRP72]	1.42 ± 0.053	1.73 ± 0.059	2.07 ± 0.12	2.26 ± 0.045
MSDEDNNYDDFMLSDDE [RRI2]		3.58 ± 0.23	3.28 ± 0.25	
LAVCDELGNMTMLITGQ [SIN4]	2.21 ± 0.06	2.55 ± 0.046	2.23 ± 0.061	2.02 ± 0.045
FGQASGASTGNANTGFS [YGL172W/NUP49]	3.18 ± 0.28	3.39 ± 0.17		
PEEATTIFSVMVEWLES [PRP8]	1.76 ± 0.076	1.26 ± 0.093	1.28 ± 0.14	1.77 ± 0.13
SLKKVDEIKAQRKEIKD [SMC4]		2.94 ± 0.18	3.29 ± 0.16	3.4 ± 0.25
ILSNVDLAMANSLRRVM [RPB3]	2.75 ± 0.055	2.54 ± 0.047	2.66 ± 0.071	2.46 ± 0.037
EGSKSHPFGHALVAGIE [RPL27A]	2.73 ± 0.061	2.83 ± 0.069	2.59 ± 0.071	2.76 ± 0.047
VAEIEKTADVKRQYVKQ [RPL20A]	3.33 ± 0.13	3.2 ± 0.088	2.94 ± 0.13	3.1 ± 0.079
EMARTKKACIIFFDEID [RPT1]	2.14 ± 0.062	2.5 ± 0.068	2.54 ± 0.083	2.56 ± 0.047
PRRYGKGSRQCRVCSSH [RPS29A]	2.81 ± 0.055	3.01 ± 0.043	2.92 ± 0.042	2.91 ± 0.038
ESYYNWKYNNFLQKFEI [YML103C/NUP188]	2.47 ± 0.056	2.83 ± 0.052	2.77 ± 0.059	2.72 ± 0.034
VTTNINWRSFNAKIIDA [SRP68]	3.14 ± 0.081	3 ± 0.083	3.06 ± 0.059	3.18 ± 0.05
LPSPESLKTKLNSNIRA [SNF5]	1.52 ± 0.048	1.71 ± 0.043	2.15 ± 0.061	2.1 ± 0.035
EELILPNTKDAMSLYHS [PRP8]	3.18 ± 0.055	3.38 ± 0.043	3.36 ± 0.04	2.8 ± 0.042
GEHEKSNILLNSLTKYP [MED1]	1.45 ± 0.08	1.92 ± 0.076	1.14 ± 0.25	1.69 ± 0.068
LGPLSYQNMAFITAKDK [YJR042W/NUP85]	2.43 ± 0.075	2.22 ± 0.088	2.26 ± 0.079	2.31 ± 0.058
QQSNKLHCCIQLLMGDI [RPN3]	1.72 ± 0.045	1.99 ± 0.068	2 ± 0.064	1.84 ± 0.054
